In patent US20120201751A1:

Assays:
[1] = target: Recombinant human CD44/Fc (R&D Systems, Minneapolis) (human) (UniProt P16070); test: SPR (Biacore T100), recombinant human CD44/Fc amine-coupled to a CM5 chip, 1:1 interaction model; column head Kd (1/s)
[2] = target: Recombinant human CD44/Fc (R&D Systems, Minneapolis) (human) (UniProt P16070); test: SPR (Biacore T100), recombinant human CD44/Fc amine-coupled to a CM5 chip, 1:1 interaction model; column head Ka (1/Ms)
[3] = target: Recombinant human CD44/Fc (R&D Systems, Minneapolis) (human) (UniProt P16070); test: SPR (Biacore T100), rhCD44/Fc amine-coupled to CM5, antibody injected 0.67-667 nM, 1:1 model

koff [1]: 0.000225 s⁻¹
kon [2]: 35400 M⁻¹ s⁻¹
Kd [3]: 6.32 nM
B1: (hu)ARH460-16-2 variant HV1/KV1 (antibody, V domains shown)
VH: EVQLVESGGGLVQPGGSLRLSCAASGFDFSRYWMSWVRQAPGKGLVWVGEVNPDSTSINYTPSLKDRFTISRDNAKNTLYLQMNSLRAEDTAVYYCTRPNYYGSRYHYYAMDYWGQGTLVTVSS
VL: DIQMTQSPSSLSASVGDRVTITCRASQDINNYLNWYQQKPGKAPKLLIYYTSRLHSGVPSRFSGSGSGTDFTFTISSLQPEDIATYYCQQGSTLPFTFGQGTKLEIK
